In patent US6673571B2, “Polypeptides having aminopeptidase activity and nucleic acids encoding same” (Novozymes Biotech, Inc., priority 1997, dated 2004):

Test system: gelatin
Assay: Degree of hydrolysis (DH) in gelatin hydrolysis, OPA method
Assay type: biochemical
Conditions: 50° C., 18 hours
Method: The aminopeptidase I was added in increased dosage to either a low or a high background of FLAVOURZYME™ and ALCALASE® as performed in Example 7.
Hydrolysis was carried out in 200 μl reactions in Eppendorf tubes. The substrate gelatin (Merck) was dissolved in distilled water at 85° C. for 5 minutes. After cooling to 50° C., the pH was adjusted to 6.5. The final gelatin concentration was adjusted to 2% after the addition of enzymes. The substrate concentration in each reaction was calculated to be 4 mg.
The hydrolysis reactions were performed at 50° C. for 18 hours. Enzymes were inactivated at 85° C. for 5 minutes followed by centrifugation. DH was calculated on the basis of the total protein content of hydrolysate using the OPA method.

B1: Sphingomonas capsulata aminopeptidase I: purified aminopeptidase of 67 kDa from Sphingomonas capsulata IFO 12533; deduced amino acid sequence SEQ ID NO:2 (protein)
chain: MRKTPQGIGLLSALSTSTLALATLILAQPALAQVQPASNSRPMAVPIAHGVPDAQDVPYPGTIGLQIDATDLATGAFRVVETVPVAADAKELILQLPAWLPGEHGNRGPVAELAGITFEAKGQKLAWTRDPVEVNAFHIPLPAGTSEVVARFIHTSPLRDSEGRITVTREMLNVQWEKMSLYPAGHYVRQIKVRPTVSFPQGWTVFTALDGKTQSGAGNTVTWAETDYETLVDSPIFAGLYAARHDLGHNVYFDLVADKPELLAIKPENLAAYRNLADEAVGAFGARHFDHYDFLLALTDRMGSIGLEHHRSSENQQEPKSLTDWAAYDWDRNVIAHEFSHSWDGKYRRSAKLWTPDYRQPMQDNLLWVYEGQTQFWGLVLAARSGVQSKDVVLGSLANYAGTFTQTAGRDWRSVEDTTMDPIFAARKPKPYSSLTRNEDYYTEGALVWLEADQIIRDGTGGKKGLDDFAKAFFGVRDGDWGVLTYEFDDVVKTLNGVYPYDWATFLKTRLQTPGQPVPLGGIERGGYKLEFKDEPNPYDKARMADAKVLSLFNSLGVTLDKDGKVTASRWDGPAFKAGLVSGMQVMAVNGDAYDADKLKGAITNAKTGNPGAGRPIELLVKRDDRFVTLPITYADGLRWPWLVRTAPGTAPTGLDKLLAPHASKLPVGKAAK
In the case of B1, the DH (0.2 U/4 mg gelatin added to low FLAVOURZYME background (2%) + 1% ALCALASE, from DH 38%) is reported as 61% and the DH (added to 7% FLAVOURZYME + 1% ALCALASE) is reported as 61%.
